This passage reports response (% bound relative to input), ratio to parent and percent of parent (% of RNF4(WT)) results from paper PMC5445624.

In assay [1] the target is MBP-RNF4(WT) (UniProt O88846). Briefly: GST pulldown. The following applies: for ratio to parent: parent: est. 1.0, read off a plot.
The target in assay [2] is GST-ETV4(1-335)(WT) SUMOylated with wild-type SUMO3, P28322;P55854. Briefly: GST pulldown. The following applies: printed grade '++' (legend: ≥50% of RNF4(WT)); parent: +++ (≥80%).

For the substance “GST-ETV4(1-480)(WT) modified with SUMO3(K11R) (from UniProt P28322;P55854) K96R; K222R; K256R; K328R”, the response (% bound relative to input) in assay [1] (ETV4 co-expressed in bacteria with SUMO3(K11R), lane 5, parent: 49) is 3. Also, in assay [1] (ETV4 co-expressed with SUMO3(K11R)), the ratio to parent is 0.05.

For “GST-ETV4(1-480)(WT) modified with SUMO3(WT) (from UniProt P28322;P55854) K96R; K222R; K256R; K328R”, in assay [1] (ETV4 co-expressed in bacteria with SUMO3(WT), lane 1, parent: 60), the response (% bound relative to input) came to 12. In addition, the ratio to parent in assay [1] (ETV4 co-expressed with SUMO3(WT)) came out at 0.03.

Regarding “MBP-RNF4(WT) (from UniProt O88846) SIM1,2mut”, the percent of parent (% of RNF4(WT)) in assay [2] is 50.
